The target of assay [1] is Arp3 (subunit of bovine Arp2/3 complex) (bovine, UniProt P61157 1-418). Nature of the assay: cryo-EM structure; Bovine Arp2/3 complex (9.0 uM) mixed with Cort_(1-76) (45 uM) in ATP-supplemented KMEI buffer (10 mM imidazole pH 7.0, 50 mM KCl, 2 mM MgCl2, 1 mM EGTA, 0.2 mM ATP), 0.0025% NP-40. The settings on record: both partners purified.
Assay [2] has as its target F-actin (skeletal α-actin, polymerized) (rabbit, UniProt P68135 1-377). As to the kind of experiment: co-sedimentation; increasing concentrations of cortactin constructs with constant F-actin (4 uM), ATP-supplemented KMEI buffer, 1 h at RT, 30 min at 278,800 g, SDS-PAGE densitometry. The note with it: both partners purified.

B1: Cort_(1-76), cortactin N-terminal acidic domain (NTA, residues 1-76) (domain or fragment)
chain: MWKASAGHAVSITQDDGGADDWETDPDFVNDVSEKEQRWGAKTVQGSGHQEHINIHKLRENVFQEHQTLKEKELET
notes: mouse cortactin, UniProt Q60598, residues 1-76; the methods say mouse cDNA; Cloned between BamHI and EcoRI of pMAL-c6T; also called cortactin's N-terminal domain; source: E. coli ArticExpress (DE3), purified (amylose, TEV cleavage, Ni-NTA, size exclusion)
Turning to B1, in assay [1], the binding result was “binds”.

B2: Cort_(1-227) (domain or fragment)
chain: MWKASAGHAVSITQDDGGADDWETDPDFVNDVSEKEQRWGAKTVQGSGHQEHINIHKLRENVFQEHQTLKEKELETGPKASHGYGGKFGVEQDRMDRSAVGHEYQSKLSKHCSQVDSVRGFGGKFGVQMDRVDQSAVGFEYQGKTEKHASQKDYSSGFGGKYGVQADRVDKSAVGFDYQGKTEKHESQKDYSKGFGGKYGIDKDKVDKSAVGFEYQGKTEKHESQKD
notes: source: E. coli ArticExpress (DE3), purified (amylose, TEV cleavage, Ni-NTA, size exclusion)
On to B2, for which, in assay [2], the binding result is “binds”.

B3: Cort_(1-401) (domain or fragment)
chain: MWKASAGHAVSITQDDGGADDWETDPDFVNDVSEKEQRWGAKTVQGSGHQEHINIHKLRENVFQEHQTLKEKELETGPKASHGYGGKFGVEQDRMDRSAVGHEYQSKLSKHCSQVDSVRGFGGKFGVQMDRVDQSAVGFEYQGKTEKHASQKDYSSGFGGKYGVQADRVDKSAVGFDYQGKTEKHESQKDYSKGFGGKYGIDKDKVDKSAVGFEYQGKTEKHESQKDYVKGFGGKFGVQTDRQDKCALGWDHQEKLQLHESQKDYKTGFGGKFGVQSERQDSSAVGFDYKERLAKHESQQDYAKGFGGKYGVQKDRMDKNASTFEEVVQVPSAYQKTVPIEAVTSKTSNIRANFENLAKEREQEDRRKAEAERAQRMAKERQEQEEARRKLEEQARAKKQT
notes: mouse cortactin, UniProt Q60598, residues 1-401; source: E. coli ArticExpress (DE3), purified (amylose, TEV cleavage, Ni-NTA, size exclusion)
On to B3, for which the binding result in assay [2] was “binds”.

B4: Cort_(1-79/154-401) (domain or fragment)
chain: MWKASAGHAVSITQDDGGADDWETDPDFVNDVSEKEQRWGAKTVQGSGHQEHINIHKLRENVFQEHQTLKEKELETGPKYSSGFGGKYGVQADRVDKSAVGFDYQGKTEKHESQKDYSKGFGGKYGIDKDKVDKSAVGFEYQGKTEKHESQKDYVKGFGGKFGVQTDRQDKCALGWDHQEKLQLHESQKDYKTGFGGKFGVQSERQDSSAVGFDYKERLAKHESQQDYAKGFGGKYGVQKDRMDKNASTFEEVVQVPSAYQKTVPIEAVTSKTSNIRANFENLAKEREQEDRRKAEAERAQRMAKERQEQEEARRKLEEQARAKKQT
notes: mouse cortactin, UniProt Q60598, residues 1-79, joined directly to residues 154-401; mouse cortactin, UniProt Q60598, residues 154-401; Internal deletion of residues 80-153; fragments ligated through overhangs coding residues 77-79; source: E. coli ArticExpress (DE3), purified (amylose, TEV cleavage, Ni-NTA, size exclusion)
With B4, the binding result in assay [2] was “binds”.
